Data on two molecules can be found in patent US20220153793A1 (SINAI HEALTH SYSTEM, published 2022).

The target of one experiment is CIP2A (endogenous) (human, UniProt Q8TCG1 1-905). As to the kind of experiment: LacR/LacO assay in U2OS lacO256 cells, endogenous CIP2A at the lacO array.
For another experiment, the target named is T1, GST-CIP2A (1-560) (human, UniProt Q8TCG1 1-560).
T1 construct: Expressed in Escherichia coli and coupled to glutathione sepharose 4B; not shown: Glutathione S-transferase tag of vector pGEX4T1
As to the kind of experiment: GST pull-down with bacterially produced proteins on glutathione resin, immunoblot anti-MBP. As to the method:
MBP and GST proteins expressed in Escherichia coli were purified on amylose (New England Biolabs) or glutathione sepharose 4B (GE Healthcare) resins according to the batch method described by the manufacturer and stored in 20 mM Tris-HCl pH 8.0, 150 mM NaCl, 1 mM DTT, 5% glycerol. […] Beads were extensively washed prior to analysis by immunoblotting.

Description for CIP2A (endogenous): 1.8×10⁵ cells were seeded in 6-well plates containing glass coverslips. […] Cells were fixed with 4% PFA 48 h after transfection and stained for immunofluorescence. […] After 0.1 mg/mL nourseothricin selection and cell expansion, 2×10⁵ cells were seeded in 6-well plates. […] 24 h later, cells were seeded in a 96-well plate (˜20,000 cells per well), cultured for 24 h and fixed with 2% PFA and stained for immunofluorescence. Images were acquired on an IN Cell Analyzer 6000 automated microscope (GE Life Sciences) with a 60× objective.

B1: mCherry-LacR-TOPBP1 3A (other)
chain: MSRNDKEPFFVKFLKSSDNSKCFFKALESIKEFQSEEYLQIITEEEALKIKENDRSLYICDPFSGVVFDHLKKLGCRIVGPQVVIFCMHHQRCVPRAEHPVYNMVMSDVTISCTSLEKEKREEVHKYVQMMGGRVYRDLNVSVTHLIAGEVGSKKYLVAANLKKPILLPSWIKTLWEKSQEKKITRYTDINMEDFKCPIFLGCIICVTGLCGLDRKEVQQLTVKHGGQYMGQLKMNECTHLIVQEPKGQKYECAKRWNVHCVTTQWFFDSIEKGFCQDESIYKTEPRPEAKTMPNSSTPTSQINTIDSRTLSDVSNISNINASCVSESICNSLNSKLEPTLENLENLDVSAFQAPEDLLDGCRIYLCGFSGRKLDKLRRLINSGGGVRFNQLNEDVTHVIVGDYDDELKQFWNKSAHRPHVVGAKWLLECFSKGYMLSEEPYIHANYQPVEIPVSHKPESKAALLKKKNSSFSKKDFAPSEKHEQADEDLLSQYENGSSTVVEAKTSEARPFNDSTHAEPLNDSTHISLQEENQSSVSHCVPDVSTITEEGLFSQKSFLVLGFSNENESNIANIIKENAGKIMSLLSRTVADYAVVPLLGCEVEATVGEVVTNTWLVTCIDYQTLFDPKSNPLFTPVPVMTGMTPLEDCVISFSQCAGAEKESLTFLANLLGASVQEYFVRKSNAKKGMFASTHLILKERGGSKYEAAKKWNLPAVTIAWLLETARTGKRADESHFLIENSTKEERSLETEITNGINLNSDTAEHPGTRLQTHRKTVVTPLDMNRFQSKAFRAVVSQHARQVAASPAVGQPLQKEPSLHLDTPSKFLSKDKLFKPSAAAKDALAALETPGRPSQQKRKPSTPLSEVIVKNLQLALANSSRNAVALSASPQLKEAQSEKEEAPKPLHKVVVCVSKKLSKKQSELNGIAASLGADYRWSFDETVTHFIYQGRPNDTNREYKSVKERGVHIVSEHWLLDCAQECKHLPESLYPHTYNPKMSLDISAVQDGRLCNSRLLSAVSSTKDDEPDPLILEENDVDNMATNNKESAPSNGSGKNDSKGVLTQTLEMRENFQKQLQEIMSATSIVKPQGQRTSLSRSGCNSASSTPDSTRSARSGRSRVLEALRQSRQTVPDVNTEPSQNEQIIWDDPTAREERARLASNLQWPSCPTQYSELQVDIQNLEDSPFQKPLHDSEIAKQAVCDPGNIRVTEAPKHPISEELETPIKDSHLIPTPQAPSIAFPLANPPVAPHPREKIITIEETHEELKKQYIFQLSSLNPQERIDYCHLIEKLGGLVIEKQCFDPTCTHIVVGHPLRNEKYLASVAAGKWVLHRSYLEACRTAGHFVQEEDYEWGSSSILDVLTGINVQQRRLALAAMRWRKKIQQRQESGIVEGAFSGWKVILHVDQSREAGFKRLLQSGGAKVLPGHSVPLFKEATHLFSDLNKLKPDDSGVNIAEAAAQNVYCLRTEYIADYLMQESPPHVENYCLPEAISFIQNNKELGTGLSQKRKAPTEKNKIKRPRVH
notes: also called Flag-LacR-TOPBP1^3A; not shown: The mCherry-LacR carrier (Flag-LacR in the legend and methods) and its linker
Take B1: the binding result with CIP2A (endogenous) is given as “no binding”.

B2: MBP-TOPBP1756-999-3A (other, not shown: large carriers)
chain: LNSDTAEHPGTRLQTHRKTVVTPLDMNRFQSKAFRAVVSQHARQVAASPAVGQPLQKEPSLHLDTPSKFLSKDKLFKPSAAAKDALAALETPGRPSQQKRKPSTPLSEVIVKNLQLALANSSRNAVALSASPQLKEAQSEKEEAPKPLHKVVVCVSKKLSKKQSELNGIAASLGADYRWSFDETVTHFIYQGRPNDTNREYKSVKERGVHIVSEHWLLDCAQECKHLPESLYPHTYNPKMSLDI
With B2, the binding result with GST-CIP2A (1-560) is reported as “no binding”.
